Source: article PMC5934295 (Neuron, 2018)

B1: mouse CALHM1-FLAG (natural protein, UniProt D3Z291 1-348, looked up)
chain: MDKFRMIFQFLQSNQESFMNGICGIMALASAQMYSAFDFNCPCLPGYNVVYSLGILLTPPLVLFLLGLVMNNNISMLAEEWKRPAGRRAKDPAVLRYMFCSMAQRALIAPVVWVAVTLLDGKCFLCAFCTAVPVATLGNGSLVPGLPAPELARLLARVPCPEIYDGNWLLAREVAVRYLRCISQALGWSFVLLTTLLAFVVRSVRPCFTQVAFLKSKYWSHYIDIERKLFDETCTEHAKAFAKVCIQQFFEAMNHDLELGHTHGVLATATATATATEAVQSPSDRTEEEREKLRGITDQGTMNRLLTSWHKCKPPLRLGQEAPLMSNGWAGGEPRPPRKEVATYFSKV

How the values were obtained:
native gel or EMSA = biological target: the molecule itself; experiment: native gel or EMSA
mouse CALHM1-FLAG = biological target: B1; experiment: native gel or EMSA
[1] = biological target: the molecule itself; experiment: single-molecule photobleaching

B1
stoichiometry N (native gel or EMSA): ~6

B2: mouse CALHM3-GFP (natural protein, UniProt J3QMI4 1-347, looked up)
chain: MDRFRMLFQHLQSSSESVMNGICLLLAAVTVKIYSSLDFNCPCLERYNALYGLGLLLTPPLALFLCGLLVNRQSVLMVEEWRRPAGHRRKDLGIIRYMCSSVLQRALAAPLVWILLALLDGKCFVCAFSNSVDPEKFLDFANMTPRQVQLFLAKVPCKEDELVKNSPARKAVSRYLRCLSQAIGWSITLLVIVVAFLARCLRPCFDQTVFLQRRYWSNYMDLEQKLFDETCCEHARDFAHRCVLHFFANMQSELRALGLRRDPAGGIPESQESSEPPELREDRDSGNGKAHLRAISSREQVDQLLSTWYSSKPPLDLAASPRRWGPGLNHRAPIAAPGTKLCHQLNV
stoichiometry N (mouse CALHM1-FLAG): ≥ 1 CALHM3 subunit per channel

B3: CALHM3-mCherry (natural protein, mouse, UniProt J3QMI4 1-347, looked up)
chain: MDRFRMLFQHLQSSSESVMNGICLLLAAVTVKIYSSLDFNCPCLERYNALYGLGLLLTPPLALFLCGLLVNRQSVLMVEEWRRPAGHRRKDLGIIRYMCSSVLQRALAAPLVWILLALLDGKCFVCAFSNSVDPEKFLDFANMTPRQVQLFLAKVPCKEDELVKNSPARKAVSRYLRCLSQAIGWSITLLVIVVAFLARCLRPCFDQTVFLQRRYWSNYMDLEQKLFDETCCEHARDFAHRCVLHFFANMQSELRALGLRRDPAGGIPESQESSEPPELREDRDSGNGKAHLRAISSREQVDQLLSTWYSSKPPLDLAASPRRWGPGLNHRAPIAAPGTKLCHQLNV
stoichiometry N [1]: 6
